Measured values from the FLAb antibody collection (doi:10.1101/2023.12.08.570889).
Residue numbers refer to the chain shown, from its start.

B1: unnamed (protein)
chain 1: EVQLLESGGGLVQPGGSLRLSCAASGFTFSQYGMDWVRQAPGKGLEWVSGIGPSGGSTVYADSVKGRFTISRDNSKNTLYLQMNSLRAEDTAVYYCTRDGPAWYYAFDVWGQGTTVTVSS
chain 2: DIQMTQSPSSLSASVGDRVTITCQASQDISNYLNWYQQKPGKAPKLLIYDASNLETGVPSRFSGSGSGTDFTFTISSLQPEDIATYYCQQADSFPVTFGGGTKVEIK
B2: unnamed (protein)
chain 1: B1 chain 1 with P101R, A102S, W103Y
chain 2: B1 chain 2
B3: unnamed (protein)
chain 1: B1 chain 1 with A102D, W103Y, V109Y
chain 2: B1 chain 2
B4: unnamed (protein)
chain 1: B1 chain 1 with T97A, A102S
chain 2: B1 chain 2
B5: unnamed (protein)
chain 1: B1 chain 1 with D99G
chain 2: B1 chain 2
B6: unnamed (protein)
chain 1: B1 chain 1 with T97A, D99G, P101S, W103Y
chain 2: B1 chain 2
B7: unnamed (protein)
chain 1: B1 chain 1 with A102Y, W103Y, V109Y
chain 2: B1 chain 2
B8: unnamed (protein)
chain 1: B1 chain 1 with P101G, W103Y
chain 2: B1 chain 2
B9: unnamed (protein)
chain 1: B1 chain 1 with T97A, D99G, W103Y, V109I
chain 2: B1 chain 2
B10: unnamed (protein)
chain 1: B1 chain 1 with D99G, A102W, W103Y
chain 2: B1 chain 2
B11: unnamed (protein)
chain 1: B1 chain 1 with D99G, W103Y, V109Y
chain 2: B1 chain 2
B12: unnamed (protein)
chain 1: B1 chain 1 with T97A, D99G
chain 2: B1 chain 2
B13: unnamed (protein)
chain 1: B1 chain 1 with T97A, W103Y
chain 2: B1 chain 2
B14: unnamed (protein)
chain 1: B1 chain 1 with D99G, P101T, W103Y
chain 2: B1 chain 2
B15: unnamed (protein)
chain 1: B1 chain 1 with P101D, W103Y
chain 2: B1 chain 2
B16: unnamed (protein)
chain 1: B1 chain 1 with D99G, W103Y, A106G, V109Y
chain 2: B1 chain 2
B17: unnamed (protein)
chain 1: QVQLVQSGAEVKKPGASVKVSCKASGYSFTSSWIHWVKQAPGQGLEWMGEINPGNVRTNYNENFRNKVTMTVDTSISTAYMELSRLRSDDTAVYYCTVVFYGEPYFPYWGQGTLVTVSS
chain 2: QIVLTQSPGTLSLSPGERATMTCTASSSVSSSYFHWYQQKPGQAPRLWIYRTSRLASGVPDRFSGSGSGTDFTLTISRLEPEDAATYYCHQFHRSPLTFGAGTKLEIK
B18: unnamed (protein)
chain 1: B17 chain 1 with V98R, V99S, F100R, Y105W, P107D
chain 2: B17 chain 2
B19: unnamed (protein)
chain 1: B17 chain 1 with V98R, F100Q, P107D
chain 2: B17 chain 2

Molecular target: FXI
Test: Kd (SPR)

Kd [nM]	Binder
51.7	B1
750	B2
573	B3
59.9	B4
241	B5
822	B6
68	B7
135	B8
430	B9
284	B10
306	B11
204	B12
84	B13
1410	B14
625	B15
148	B16

Molecular target: IL36R
Test: Kd (SPR)

Kd [nM]	Binder
0.964	B17
24.5	B18
0.617	B19
